Measured values from the supplement of paper PMC10724198.
± gives the standard deviation of the averaged measurements.

What follows are sequences tested on Saccharomyces cerevisiae (assay: protein stability index of tFT-peptide fusion (C-terminal peptide) (PSI (0-1 scale)); higher = more stable (slower turnover)). Details: genetic background: wild type; temperature: 30 C.
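Also: PSI is a weighted mean of sequencing reads over stability bins, variants kept only with over 10 reads, mCherry proximal and sfGFP distal, peptide attached via GGGS linker.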

| Sequence | protein stability index |
| --- | --- |
| FCDFSPPARSFP | 0.76 ± 0.072 |
| QKKKKNRKQKIK | 0.696 ± 0.017 |
| EQHTKNDQNNEP | 0.664 ± 0.028 |
| KLGNVRGPSYSL | 0.709 ± 0.056 |
| LYNVTRDTWVLS | 0.66 ± 0.057 |
| GAGRGRLGVGPV | 0.67 ± 0.066 |
| AVGGDGGAWVGP | 0.7231 ± 0.0022 |
| DGALWGTDRGAG | 0.701 ± 0.064 |
| KQKKKRKSRRKK | 0.6504 ± 0.0033 |
| ASALIFTPPSFL | 0.686 ± 0.12 |
| PPLPPLPLSLSI | 0.742 ± 0.093 |
| KKKKKKDQKNKK | 0.734 ± 0.057 |
| NKQTKTQPTKKE | 0.725 ± 0.015 |
| VGGAWRMGRGGG | 0.658 ± 0.018 |
| VFKLRLPAVPHT | 0.734 ± 0.09 |
| VVGRWRVCNVGL | 0.626 ± 0.05 |
| SLKHRSSLRQLI | 0.519 ± 0.01 |
| GWGGGGGAGGSV | 0.683 ± 0.018 |
| SEILFRSSPFPI | 0.721 ± 0.09 |
| SHPPFPFAPPPR | 0.674 ± 0.031 |
| GCGLGEEGSSGV | 0.647 ± 0.0091 |
| QKRAREKAPTPD | 0.729 ± 0.012 |
| WYVALGRFVGGS | 0.678 ± 0.049 |
| RNTIKTKKSNYV | 0.654 ± 0.015 |
| TKHRFPKYRYLG | 0.5868 ± 0.0011 |
| RQDRTFEIQGWE | 0.697 ± 0.084 |

| Sequence | protein stability index |
| --- | --- |
| PQNTNNPENGHC | 0.667 ± 0.04 |
| IAVHLSVSSRSW | 0.616 ± 0.035 |
| LPPLPPRVLFNL | 0.5604 ± 0.00084 |
| ICVAVESRVSRG | 0.628 ± 0.046 |
| SFCHWRFSFPKC | 0.666 ± 0.04 |
| PQVGWFCNRLEV | 0.836 ± 0.17 |
| RDSKDMTWISTS | 0.6755 ± 0.0024 |
| PLPPSSSPSSLP | 0.71 ± 0.077 |
| EGTTRDGERCRT | 0.696 ± 0.0056 |
| VRPPPPPRSSPL | 0.742 ± 0.055 |
| LYVLHCSLIEEV | 0.543 ± 0.051 |
| GCSGRRGRGGRG | 0.743 ± 0.046 |
| TLGSSTPFPCFP | 0.716 ± 0.059 |
| PCINGSASRRSG | 0.6189 ± 0.0058 |
| LAGLRLPNDLGP | 0.712 ± 0.059 |
| WILFQAGSREIR | 0.701 ± 0.017 |
| PPRPLPPHPLLL | 0.681 ± 0.049 |
| ADRGLVSLAIVG | 0.582 ± 0.015 |
| AAGLHFYIFRGI | 0.669 ± 0.025 |
| LLLSQSSFCLTC | 0.637 ± 0.046 |
| PPPAAPPSSPLL | 0.765 ± 0.071 |
| RLGGGGCVWVRG | 0.683 ± 0.027 |
| RLPPPSPSLPPL | 0.722 ± 0.063 |
| GGVGSCLVLSAR | 0.668 ± 0.036 |
| PAPPPPLPLHPR | 0.664 ± 0.046 |
| SFLVLRGSGGKW | 0.713 ± 0.082 |

| Sequence | protein stability index |
| --- | --- |
| GKSHLGGSLTVL | 0.671 ± 0.034 |
| PLPRPPPTATGD | 0.687 ± 0.013 |
| HPPLPRPPPVPH | 0.683 ± 0.019 |
| KQKKTQKIYTMR | 0.728 ± 0.059 |
| YAIINISRESLD | 0.717 ± 0.062 |
| GGIVVRGVGVRC | 0.661 ± 0.04 |
| TLSQILVSSSLS | 0.5896 ± 0.0019 |
| KKKMINEKKKKD | 0.701 ± 0.025 |
| HPPHLSTPPYPP | 0.722 ± 0.047 |
| LTPLPPPPLRPP | 0.599 ± 0.024 |
| NSEKKKKRKEKK | 0.731 ± 0.024 |
| SPKPPPHPPPPA | 0.535 ± 0.0095 |
| CGRVWAENGSQG | 0.689 ± 0.008 |
| PVFLQRVIPRSR | 0.678 ± 0.096 |
| KDFGYKKKNRRY | 0.734 ± 0.032 |
| NMPIGVRLLLGR | 0.652 ± 0.011 |
| CVQVMTWAMLEC | 0.618 ± 0.022 |
| SLLLPLPLPVRL | 0.582 ± 0.0086 |
| GVGAPGARGVWG | 0.748 ± 0.048 |
| LLYAFSSFLRAP | 0.647 ± 0.046 |
| IEHYPVSSPKMR | 0.623 ± 0.079 |
| FVRFLVGGLGRW | 0.606 ± 0.05 |
| PPPAPPLTFGHV | 0.6852 ± 0.0031 |
| DNMKLILNGYNL | 0.658 ± 0.03 |
| VRWSRMGCNWGG | 0.585 ± 0.093 |
| PPPPPLLTRPLP | 0.699 ± 0.081 |

| Sequence | protein stability index |
| --- | --- |
| KGLKRNENGTMS | 0.638 ± 0.017 |
| VAVRARRWASGP | 0.727 ± 0.055 |
| GAGEGVGSVVVR | 0.632 ± 0.052 |
| AVGGGTPGGVSG | 0.667 ± 0.012 |
| KKKKKSKKKTKT | 0.668 ± 0.0037 |
| SRSSRINLMRRW | 0.674 ± 0.021 |
| LVSCPPPPAPPP | 0.659 ± 0.06 |
| RASGNHVNQVDC | 0.719 ± 0.036 |
| KKKKVKKQRISR | 0.713 ± 0.11 |
| PFSPLVPPLSFS | 0.76 ± 0.086 |
| PTRPPAPGPGRH | 0.744 ± 0.045 |
| PPPPPPLHATPL | 0.6969 ± 0.0065 |
| TGRNIGRVKIYL | 0.665 ± 0.049 |
| APPPNSLPPPPP | 0.72 ± 0.022 |
| DCFISPRIFRPK | 0.721 ± 0.023 |
| PSHRPWPPTRPP | 0.677 ± 0.033 |
| PNPRSPRPSPPS | 0.687 ± 0.038 |
| ESIGCINIRMRG | 0.694 ± 0.013 |
| PQSKWLTTFRQK | 0.713 ± 0.095 |
| VMKILQVGDVYN | 0.752 ± 0.021 |
| SDCPYVYVRVRD | 0.69 ± 0.02 |
| LSLTIYVSELFR | 0.587 ± 0.0084 |
| LFSLFFPTCFRF | 0.557 ± 0.0092 |
